According to patent US20200262921A1 (SHANGHAI KANDA BIOTECHNOLOGY, published 2020):
Read-outs that look alike come from different tables or passages of the source.

What was measured:
[1] = target: T1, Recombinant human CTLA-4-Fc fusion protein (R&D Systems, Catalog number 352-CTY/CF) (human, UniProt P16410 37-162); assay: ELISA, plates coated with purified rhCTLA-4, 4-parameter fit; C5 mAb
T1 construct: range 37-162; Bought reagent; also called rhCTLA-4; rhCTLA-4-Fc; not shown: immunoglobulin gamma I Fc region
T1 sequence (looked up): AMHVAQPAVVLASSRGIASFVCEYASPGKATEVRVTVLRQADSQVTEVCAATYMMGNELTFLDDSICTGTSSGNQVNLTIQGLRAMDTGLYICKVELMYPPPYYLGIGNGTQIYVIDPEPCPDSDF

[2] = target: T1, Recombinant human CTLA-4-Fc fusion …; assay: BLI (Fortebio), mAb captured on sensors, rhCTLA-4-Fc in solution 100 nM to 1.6 nM
Experimental: Kinetic analysis of binding to rhCTLA-4. […] The sensors were then blocked in the blocking solution for 5 min. Recombinant human CTLA-4-Fc protein was two-fold serial diluted in the blocking solution to 7 different concentrations, range from 100 nM to 1.6 nM. Kinetic association assays were started by putting antibody-capturing sensors into above serial diluted CTLA-4-Fc solutions. One sensor was immersed into the blocking solution as negative control. After 5 min binding, all sensors were moved to the blocking solution to start kinetic dissociation assays. Assays were stopped after 7 min.

[3] = target: T1, Recombinant human CTLA-4-Fc fusion …; assay: ELISA on coated rhCTLA-4, goat anti-human IgG F(ab') alkaline phosphatase, OD 415 nm
[4] = target: T1, Recombinant human CTLA-4-Fc fusion …; assay: ELISA on coated CTLA-4 (rhCTLA-4-Fc), scFv phage at one amount, anti-M13-HRP, absorbance at 450 nm
[5] = target: T1, Recombinant human CTLA-4-Fc fusion …; assay: ELISA, plates coated with purified rhCTLA-4, 4-parameter fit; C2 mAb
[6] = target: T1, Recombinant human CTLA-4-Fc fusion …; assay: ELISA on coated rhCTLA-4, goat anti-human IgG F(ab') alkaline phosphatase, OD 415 nm; remark: listed apart in the source
[7] = target: T1, Recombinant human CTLA-4-Fc fusion …; assay: competition ELISA on coated rhCTLA-4-Fc, 10 ng/ml biotin-B7-1-Fc mixed with the antibody, streptavidin alkaline phosphatase, absorption at 405 nm
Experimental: Human recombinant CTLA-4-Fc (2 ug/ml) in 50 ul of 20 mM NaHCO3, pH 9.7 was coated on 96-well plates and incubated at 4° C. overnight. After rhCTLA-4-Fc was removed, the plates were blocked with 100 ul of 3% BSA in wash/dilution buffer (TBS buffer, pH 7.0 containing 0.05% Tween-20) at 37° C. for 2 hours. […] The mixtures (50 ul/well) were added to rhCTLA-4-Fc coated plates and incubated at 37° C. for 2 hours. The solution was decanted, and the plates were washed 3 times with wash buffer. Alkaline phosphatase conjugated streptavidin (Herochem Inc., China) was diluted 2500-fold in binding buffer and add 50 ul/well to plates. After the plates were incubated at 37° C. for 2 hours, the AP-streptavidin solution was decanted, and the plates were washed 6 times with wash buffer. Alkaline phosphatase substrate pNpp solution was added 50 ul/well to plates. The plates were incubated at 37° C. for 20 min and read at 405 nm using a Bio-Rad microplate reader. […] All samples were tested in duplicate.

B1: C5 mAb (anti-human CTLA-4 full length human monoclonal antibody) (antibody, V domains shown)
VH: QVQLVQSGAEVKKPGASVKVSCKASGFSFPNYYMHWVRQAPGQGLEWMGIISPTGGSRTYAQKFQGRVTITRDTSTSTVYMELSSLRSEDTAVYYCAREMYNWNGGWDYGMDVWGQGTLVTVSS
VL: QSALTQSASVSGFPGQSITVSCVGTNSDVEAYDLVSWYRQHPDKSPNLLIYDNYKRPSGVSDRFSAFKSGNTASLTISGLQAEDEAYYYCCSYAGFSTWIFGAGTQLTVLG
notes: also called clone C5; KD6001-5
Work on B1 yielded an EC50 [1] of 0.066 µg/mL, a Kd [2] of 2.2 nM and a koff [2] of 0.00061 s⁻¹. The kon [2] was 280000 M⁻¹ s⁻¹ and the “EC50 (read off the curve)” value [3] was ~0.08 µg/mL.

B2: C15 (scFv, V domains shown, not shown: large carriers; small tags and cut ends)
VH: QVQLVQSGAEVKKPGSSVKVSCKASGGTFSSYAISWVRQAPGQGLEWMGGIIPIFGTANYAQKFQGRVTITADESTSTAYMELSSLRSEDTAVYYCARDTAMALFYYYYGMDVWGQGTLVTVSS
VL: QSALTQPASVSGSPGQSTTISCTGTSSDVGGYNYVSWYQQHPGKAPKLMIYEVSNRPSGVSNRFSGSKSGNTASLTISGLQAEDEADYYCSSYRSSGTPYVFGTGTKLTVL
notes: scFv phage form of clone C15; also called clone C15 scFv phage; C15 scFv; copies: 1 + 1
B2: binds [4].

B3: C2 mAb (anti-human CTLA-4 full length human monoclonal antibody) (antibody, V domains shown)
VH: QVQLVQSGGGVVQPGRSLRLSCAASGFTFSSYGMHWVRQAPGKGLEWVAVIWYDGSRQYYADSVKGRFTISRDDSKNTMYLQMNSLRAEDTAVYYCARGGFWGAFDIWGQGTMVTVSS
VL: DVVMTQSPGTLSLSPGEGATLSCRASQHVISSYLAWYQQKPGQAPRLLVYGASSRDTGVSDRFTGSGSGTDFTLTISRLEPEDSAVYFCQQYGTSPWTFGQGTKLEIKR
notes: also called clone C2; KD6001-2
For B3, the EC50 [5] was 0.025 µg/mL, the Kd [2] was 0.86 nM and the koff [2] was 0.00048 s⁻¹. The kon [2] was 550000 M⁻¹ s⁻¹, the “EC50 (read off the curve)” value [6] was ~0.03 µg/mL and the “IC50 (read off the curve)” value [7] was ~0.03 µg/mL.
